Data: the supplement of paper PMC10567573

B1: VPS39 (parent)
chain: LRLENNHCHIEESEHVLKKAHKYS

Variants of: B1
Test: protein stability index of a GFP-peptide fusion (GPS, HEK-293T) (PSI 1-6); higher = more stable
Settings: c terminus: a fixed tail appended
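Further: lentivirally expressed fusions sorted by FACS into six bins by GFP to DsRed ratio, PSI derived from sequencing read proportions per bin multiplied by bin number.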

Compared with L3F, L3G is higher in protein stability index: 2.09 for the first, 4.43 for the second.

Compared with L3H, L3I is lower in protein stability index: 3.6 for the first, 2.62 for the second.

Going from L3K to L3M, the protein stability index falls from 4.32 to 3.13.

Going from L3N to L3P, the protein stability index rises from 3.17 to 3.7.

First: L3Q
Second: L3R
The protein stability index of the first is lower: 4.06 for the first, 4.51 for the second.

First: L3S
Second: L3T
The protein stability index of the first is higher: 3.33 for the first, 3.06 for the second.

Compared with L3V, L3W is higher in protein stability index: 2.38 for the first, 3.01 for the second.

Compared with L3Y, E4A is higher in protein stability index: 2.56 for the first, 2.68 for the second.

First: E4C
Second: E4D
The protein stability index of the first is lower: 2.44 for the first, 3.12 for the second.

Going from E4F to E4G, the protein stability index falls from 2.54 to 2.41.

Going from E4H to E4I, the protein stability index falls from 3.32 to 2.17.

Compared with E4K, E4L is lower in protein stability index: 3.45 for the first, 2.35 for the second.

Going from E4M to E4N, the protein stability index rises from 2.65 to 3.92.

First: E4P
Second: E4Q
The protein stability index of the first is lower: 2.83 for the first, 2.92 for the second.

Going from E4R to E4S, the protein stability index falls from 3.45 to 2.71.

Going from E4T to E4V, the protein stability index rises from 2.56 to 2.71.

Compared with E4W, E4Y is higher in protein stability index: 2.44 for the first, 2.53 for the second.

Compared with N5A, N5C is lower in protein stability index: 2.23 for the first, 2.22 for the second.

First: N5D
Second: N5E
The protein stability index of the first is lower: 1.94 for the first, 2.46 for the second.

First: N5F
Second: N5G
The protein stability index of the first is lower: 1.27 for the first, 1.91 for the second.

First: N5H
Second: N5I
The protein stability index of the first is lower: 1.91 for the first, 2.22 for the second.

First: N5K
Second: N5L
The protein stability index of the first is higher: 3.08 for the first, 2.23 for the second.

First: N5M
Second: N5P
The protein stability index of the first is higher: 2.33 for the first, 2.29 for the second.

First: N5Q
Second: N5R
The protein stability index of the first is lower: 2.18 for the first, 2.77 for the second.

Going from N5S to N5T, the protein stability index rises from 1.98 to 2.48.

First: N5V
Second: N5W
The protein stability index of the first is lower: 1.48 for the first, 1.74 for the second.

First: N5Y
Second: N6A
The protein stability index of the first is lower: 2.37 for the first, 2.72 for the second.

Compared with N6C, N6D is higher in protein stability index: 2.44 for the first, 2.54 for the second.

Going from N6E to N6F, the protein stability index falls from 3.13 to 1.75.

Compared with N6G, N6H is higher in protein stability index: 2.66 for the first, 3.16 for the second.

First: N6I
Second: N6K
The protein stability index of the first is lower: 2.33 for the first, 3.49 for the second.

First: N6L
Second: N6M
The protein stability index of the first is higher: 2.58 for the first, 1.87 for the second.

Compared with N6P, N6Q is higher in protein stability index: 2.12 for the first, 2.63 for the second.

Compared with N6R, N6S is higher in protein stability index: 2.49 for the first, 2.55 for the second.

First: N6T
Second: N6V
The protein stability index of the first is higher: 2.35 for the first, 2.13 for the second.

Compared with N6W, N6Y is higher in protein stability index: 1.97 for the first, 2.23 for the second.

Compared with H7A, H7C is lower in protein stability index: 2.79 for the first, 2.15 for the second.

Going from H7D to H7E, the protein stability index rises from 2 to 2.38.

Compared with H7F, H7G is lower in protein stability index: 2.03 for the first, 1.97 for the second.

First: H7I
Second: H7K
The protein stability index of the first is lower: 2.15 for the first, 2.84 for the second.

Compared with H7L, H7M is higher in protein stability index: 2.32 for the first, 2.46 for the second.

Going from H7N to H7P, the protein stability index falls from 3.37 to 3.01.

First: H7Q
Second: H7R
The protein stability index of the first is lower: 2.34 for the first, 2.9 for the second.

Going from H7S to H7T, the protein stability index rises from 2.04 to 2.88.

Compared with H7V, H7W is lower in protein stability index: 2.35 for the first, 2.17 for the second.

Going from H7Y to C8A, the protein stability index rises from 2.79 to 3.17.

Going from C8D to C8E, the protein stability index falls from 3.58 to 2.35.

First: C8F
Second: C8G
The protein stability index of the first is higher: 2.29 for the first, 2.27 for the second.

Compared with C8H, C8I is lower in protein stability index: 3.03 for the first, 2.15 for the second.

Going from C8K to C8L, the protein stability index falls from 3.3 to 2.47.

Compared with C8M, C8N is lower in protein stability index: 2.43 for the first, 2.38 for the second.

Compared with C8P, C8Q is lower in protein stability index: 2.53 for the first, 2.27 for the second.

Compared with C8R, C8S is lower in protein stability index: 2.95 for the first, 2.88 for the second.

Going from C8T to C8V, the protein stability index falls from 3.19 to 1.88.

Going from C8W to C8Y, the protein stability index falls from 2.4 to 1.86.

Going from H9A to H9C, the protein stability index rises from 2.2 to 2.86.

Going from H9D to H9E, the protein stability index falls from 2.68 to 1.59.

First: H9F
Second: H9G
The protein stability index of the first is lower: 1.92 for the first, 2.7 for the second.

Going from H9I to H9K, the protein stability index rises from 2.19 to 3.59.

Going from H9L to H9M, the protein stability index rises from 1.84 to 2.42.

Compared with H9N, H9P is lower in protein stability index: 2.27 for the first, 1.8 for the second.

Compared with H9Q, H9R is higher in protein stability index: 2.57 for the first, 2.83 for the second.

Compared with H9S, H9T is higher in protein stability index: 3.23 for the first, 3.29 for the second.

Going from H9V to H9W, the protein stability index falls from 2.4 to 2.18.

Compared with H9Y, I10A is higher in protein stability index: 1.92 for the first, 3.75 for the second.

Going from I10C to I10D, the protein stability index rises from 3.18 to 3.53.

First: I10E
Second: I10F
The protein stability index of the first is higher: 3.08 for the first, 2.11 for the second.

First: I10G
Second: I10H
The protein stability index of the first is lower: 2.74 for the first, 3.17 for the second.

Going from I10K to I10L, the protein stability index falls from 3.33 to 1.9.

First: I10M
Second: I10N
The protein stability index of the first is lower: 2.34 for the first, 2.73 for the second.

Going from I10P to I10Q, the protein stability index falls from 3.1 to 3.

First: I10R
Second: I10S
The protein stability index of the first is lower: 3.01 for the first, 3.33 for the second.

First: I10T
Second: I10V
The protein stability index of the first is higher: 3.02 for the first, 2.68 for the second.

Compared with I10W, I10Y is higher in protein stability index: 2.43 for the first, 2.57 for the second.

Compared with E11A, E11C is lower in protein stability index: 3.06 for the first, 1.99 for the second.

First: E11D
Second: E11F
The protein stability index of the first is higher: 2.65 for the first, 1.75 for the second.

Going from E11G to E11H, the protein stability index falls from 2.72 to 2.52.

First: E11I
Second: E11K
The protein stability index of the first is lower: 2.12 for the first, 2.79 for the second.

Compared with E11L, E11M is lower in protein stability index: 2.86 for the first, 2.31 for the second.

First: E11N
Second: E11P
The protein stability index of the first is lower: 2.19 for the first, 2.26 for the second.

Compared with E11Q, E11R is higher in protein stability index: 2.06 for the first, 3.35 for the second.

Compared with E11S, E11T is lower in protein stability index: 3.04 for the first, 2.49 for the second.

First: E11V
Second: E11W
The protein stability index of the first is lower: 1.97 for the first, 2.75 for the second.

For E11Y, the protein stability index was 3.06.
